These results are taken from patent publication US20220155309A1 (NATIONAL UNIVERSITY CORPORATION TOKYO MEDICAL AND DENTAL …, published 2022).

Test [1] addresses T1, vimentin (UniProt P08670 2-466, limits assumed).
T1 construct: whole, on cells; Endogenous intracellular intermediate filament; also called vimentin fibers; intracellular vimentin
Nature of the test: fluorescence polarization microscopy of cells expressing the fusion protein. An excerpt:
(§1) An expression vector in which DNA encoding the fusion protein designed was placed under an appropriate promoter was introduced by a lipofection method (Avalanche-Everyday Transfection Reagent), thereby allowing HeLa cells to express the above fusion protein. The cells expressing the fusion protein were observed by fluorescence polarization microscopy.
(§2) The orientation of polarization was different from that in the previous cp-sfGFP. The cp-sfGFP of Example 5 and the cp176-172mVenus used in this example were basically the same type of fluorescent proteins but different in the position of cp.
For orientation: Fluorescence polarisation rises when a labelled molecule tumbles more slowly, as on binding a larger partner.

In test [2] the target is T1, vimentin. Nature of the test: fluorescence polarization microscopy of HeLa cells expressing the fusion protein.
Description: as §1, §2

Test [3] has as its target T2, Affimer that binds to actin with ALFA-tag introduced (SEQ ID No: 41).
T2 construct: Expressed in HeLaM cells; also called fusion protein of Affimer and an ALFA-tag; Affimer with ALFA-tag introduced
T2 chain: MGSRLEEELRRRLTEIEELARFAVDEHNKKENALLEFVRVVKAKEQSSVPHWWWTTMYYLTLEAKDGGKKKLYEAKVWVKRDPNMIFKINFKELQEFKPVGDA
Nature of the test: fluorescence polarization microscopy of HeLaM cells expressing the ALFA-tagged Affimer, detected with the anti-ALFA-tag Nanobody-cp176-172mVenus fusion. The text has this: Specifically, an ALFA-tag (SEQ ID No: 40) was introduced into an Affimer (SEQ ID No: 2) that binds to F-actin as a model system for verifying the above detection system, to obtain a fusion protein having the amino acid sequence set forth in SEQ ID No: 41. This fusion protein was expressed in HeLaM cells. A fusion protein of an anti-ALFA-tag Nanobody (SEQ ID No: 42) and cp176-172mVenus (SEQ ID No: 43) were brought into contact, and fluorescence polarization was observed. The fusion protein of anti-ALFA-tagged Nanobody and cp176-172mVenus was a fusion protein suitable for observation of fluorescence polarization, in which the Nanobody and the cp176-172mVenus were tightly linked (c.f. Example 5).

T1 sequence (P08670 2-466 limits assumed): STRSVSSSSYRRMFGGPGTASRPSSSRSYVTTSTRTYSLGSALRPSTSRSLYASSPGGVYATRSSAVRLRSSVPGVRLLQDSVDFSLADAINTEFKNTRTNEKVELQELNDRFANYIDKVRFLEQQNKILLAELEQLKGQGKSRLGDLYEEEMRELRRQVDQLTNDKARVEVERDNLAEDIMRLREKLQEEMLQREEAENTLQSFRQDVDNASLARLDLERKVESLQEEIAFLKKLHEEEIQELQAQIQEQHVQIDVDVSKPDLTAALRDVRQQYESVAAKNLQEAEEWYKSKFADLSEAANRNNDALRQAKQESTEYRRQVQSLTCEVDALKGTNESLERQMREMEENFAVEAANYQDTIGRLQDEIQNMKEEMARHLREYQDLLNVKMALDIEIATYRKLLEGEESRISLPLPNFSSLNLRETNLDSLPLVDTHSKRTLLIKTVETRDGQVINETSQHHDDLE

B1: fusion protein of Nanobody that binds to vimentin and cpmTurquoise2 (SEQ ID No: 25) (VHH)
VHH: QVQLVESGGGLVQSGGSLTLTCAASGFTFSAASMRWVRQVPGKGLEWVATIDGTGANSYYSESAKGRFTISRDNARNTLRLQMNNLKPDDTAVYYCANFGRNYWGKGTQVTVVV
B1: in the test with vimentin [1], the binding result is given as “binds”.

B2: fusion protein of vimentin-binding Nanobody and mApple (SEQ ID No: 19) (VHH)
VHH: QVQLVESGGGLVQSGGSLTLTCAASGFTFSAASMRWVRQVPGKGLEWVATIDGTGANSYYSESAKGRFTISRDNARNTLRLQMNNLKPDDTAVYYCANFGRNYWGKGTQVTVMA
notes: Expressed inside HeLa cells; also called fusion protein of mApple and Nanobody
In the case of B2, the binding result in the test with vimentin [2] is on record as “binds”.

B3: fusion protein of vimentin-binding Nanobody and cp-sfGFP (SEQ ID No: 17) (VHH)
VHH: QVQLVESGGGLVQSGGSLTLTCAASGFTFSAASMRWVRQVPGKGLEWVATIDGTGANSYYSESAKGRFTISRDNARNTLRLQMNNLKPDDTAVYYCANFGRNYWGKGTQVTVVV
notes: Expressed inside HeLa cells; beta-sheet to beta-sheet linkage; also called fusion protein of cp-sfGFP and Nanobody
As for B3, the binding result with vimentin [2] was “binds”.

B4: fusion protein of Nanobody that binds to vimentin and cp176-172mVenus (SEQ ID No: 31) (VHH)
VHH: QVQLVESGGGLVQSGGSLTLTCAASGFTFSAASMRWVRQVPGKGLEWVATIDGTGANSYYSESAKGRFTISRDNARNTLRLQMNNLKPDDTAVYYCANFGRNYWGKGTQVTVVV
notes: Expressed inside HeLa cells
Turning to B4, in the test with vimentin [2], the binding result is given as “binds”.

B5: fusion protein of Nanobody that binds to vimentin and cpmVenus (SEQ ID No: 26) (VHH)
VHH: QVQLVESGGGLVQSGGSLTLTCAASGFTFSAASMRWVRQVPGKGLEWVATIDGTGANSYYSESAKGRFTISRDNARNTLRLQMNNLKPDDTAVYYCANFGRNYWGKGTQVTVVV
As to B5, the binding result in the test with vimentin [1] is “binds”.

B6: fusion protein of anti-ALFA-tag Nanobody and cp176-172mVenus (SEQ ID No: 43) (VHH)
VHH: EVQLQESGGGLVQPGGSLRLSCTASGVTISALNAMAMGWYRQAPGERRVMVAAVSERGNAMYRESVQGRFTVTRDFTNKMVSLQMDNLKPEDTAVYYCHVLEDRVDSFHDYWGQGTQVTVVQ
Consider B6, for which, in test [3], the binding result was “binds”.
